Experiments:
Experiment in all cases: BLI; virus immobilised on APS probe (Gator Prime), PBS as running buffer; three concentrations (serial dilutions) of RDTfR in PBST (PBS, 0.05% Tween-20) applied; global fit, 1:1 binding model
[1] = molecular target: rRDPV-16 virus (rescued from the infectious cDNA clone pRDPV-16 of raccoon dog parvovirus strain RDPV/CL/2016), capsid of VP2 (raccoon dog parvovirus, strain RDPV/CL/2016)
[2] = molecular target: wild-type raccoon dog parvovirus strain RDPV/CL/2016, capsid of VP2 (raccoon dog parvovirus, strain RDPV/CL/2016)
[3] = molecular target: wild-type raccoon dog parvovirus strain RDPV/FLD/2010, capsid of VP2 (raccoon dog parvovirus, strain RDPV/FLD/2010)

raccoon dog transferrin receptor ectodomain (recombinant RDTfR, from residue 121, C-terminal 6x His)
Kd [1]: 56.1 nM
koff [1]: 0.00306 s⁻¹
kon [1]: 54500 M⁻¹ s⁻¹
Kd [2]: 81.1 nM
Kd [3]: 103 nM
